Results taken from US7998688B2, “Inhibition of EMT induction in tumor cells by anti-cancer agents” (OSI Pharmaceuticals, LLC, priority 2008, dated 2011).
Read-outs that look alike come from different tables or passages of the source.

What was measured:
[1] = phase III, monotherapy, patients with advanced, treatment-refractory NSCLC; cited from earlier work
[2] = phase III, first-line, in combination with gemcitabine, pancreatic cancer; cited from earlier work
[3] = test system: H358 cells; assay: TaqMan quantitative RT-PCR of ZEB1 and Snail mRNA in TGFβ3-treated H358 cells; format: cell-based, human; settings: H358 cells without PAK knockdown, 72 h post-TGFβ3, TaqMan (FIG. 4)
Protocol: siRNA knockdown and TGFβ3 treatment: For PAK1 and PAK2 siRNA knockdown in H358 cells, cells were seeded at a density of 5×10^4 cells/well in 6-well dishes. Next day, the cells were transfected using Lipofectamine 2000 (Invitrogen, 11668-019) with 62.5 nM PAK1 (Invitrogen; validated stealth siRNAduplex2, 12936-54) 62.5 nM PAK2 (Invitrogen; validated stealth siRNA duplex 1, 12936-55), 62.5 nM PAK1 & 62.5 nM PAK2 siRNA, or 62.5 nM negative control (Invitrogen, 12935-300) according to the manufacturer's instructions. Transfection reagent was replaced 4 hours post transfection with fresh media. The cells were re-transfected as above 48 hrs after initial transfection. 4 hours post-transfection, the transfection reagent was replaced with fresh media plus or minus 10 nM TGFβ3.
RNA isolation and TaqMan analysis: For TaqMan analysis, total RNA was isolated 72 hours after TGFβ3 treatment of H358 cells (5 and 3 days after first and second siRNA transfections). SuperArray's (SuperArray Bioscience Corp. Frederick, Md. 21704, USA) Total RNA Isolation Kit (GA-013) was used. Subsequently first strand cDNAs were made using RT PCR Array First Strand Kit (SuperArray; C-02). Quantitative-RT-PCR analyses were performed using Taqman Gene Expression Assays (Applied Biosystems, Foster City, Calif.) for PAK1, PAK2, Zeb1, and Snail.

[4] = test system: H358 NSCLC cells; assay: TGFβ3 induction of EMT in H358 NSCLC cells (western blot); format: cell-based, human; settings: TGFβ3 1 nM, 7 days (FIG. 1)
Protocol: FIG. 1: TGFβ3 induces EMT in H358 NSCLC cells. H358 cells were treated with TGFβ3 (1 nM, 7 days) in the presence or absence of the TGFβ receptor kinase inhibitor SB43 1542. Protein extracts were analyzed by western blot using the indicated antibodies.
Western blot analysis: For western blot analysis in H358 cells, cells were harvested 72 hrs after the addition of TGFβ3 addition (5 and 3 days after first and second siRNA transfections). For western blot analysis in HCT116/tet-on/Snail-Flag cells, cells were harvested 24 hours after Dox addition. […] Cell lysates were cleared of insoluble material by centrifugation at 15,000×g for 5 minutes at 4° C. Protein concentrations were measured in the resultant supernatant using the BCA protein analysis kit ([…].; 23225). 15 ug total lysate was used for SDS-PAGE followed by immunoblotting with the appropriate antibodies. The following antibodies were used: E-cadherin (Cell Signaling, Beverly, Mass.; 3195), vimentin (BD Biosciences, San Jose, Calif.; 550513), ErbB3 (Santa Cruz Biotechnology, Santa Cruz, Calif.; sc285), PAK1 (Cell Signaling, 2062), PAK2 (Cell Signaling, 2068), Flag (Sigma, F3165), ZEB1 (Santa Cruz, sc25388), N-Cadherin (Santa Cruz, sc7939), Fibronection (BD, 610078), β-action (Sigma, A1978).

Molecule	disease progression [1]	survival [1]	worsening of lung cancer-related symptoms [1]	survival [2]	Snail mRNA induction by TGFβ3 [3] [fold]	ZEB1 mRNA induction by TGFβ3 [3] [fold]	expression of epithelial markers (E-cadherin and ErbB3) [4]	expression of mesenchymal markers (vimentin, N-cadherin, and fibronectin) [4]	protein levels of the EMT driver ZEB1 [4]
C#Cc1cccc(Nc2ncnc3cc(OCCOC)c(OCCOC)cc23)c1 [erlotinib, [6,7-bis(2-methoxyethoxy)-4-quinazolin-4-yl]-(3-ethynylphenyl) amine]	delayed disease progression	significantly prolonged survival	delayed worsening of lung cancer-related symptoms	improves survival	–	–	–	–	–
TGFβ3: Human recombinant mature TGF-beta3 prepared and purified at OSI Pharmaceuticals; EMT inducer (protein, UniProt P10600 301-412, looked up, Transforming growth factor beta-3, Human recombinant mature TGF-beta3 prepared and purified at OSI Pharmaceuticals; EMT inducer) Transforming growth factor …: ALDTNYCFRNLEENCCVRPLYIDFRQDLGWKWVHEPKGYYANFCSGPCPYLRSADTTHSTVLGLYNTLNPEASASPCCVPQDLEPLTILYYVGRTPKVEQLSNMVVKSCKCS	–	–	–	–	~2.8	6	downregulating the expression of epithelial markers (E-cadherin and ErbB3)	upregulating that of mesenchymal markers (vimentin, N-cadherin, and fibronectin)	increase in the protein levels of the EMT driver ZEB1
